Columns and labels:
[1] = biological target: (Pro-Pro-Gly)10 peptide model substrate
[2] = biological target: Unhydroxylated collagen purified from strain PP434 (vector MMV411)

B1: P4HA and P4HB with the His tag, expressed separately (bidirectional), encoded by plasmid MMV503 (protein)
chain 1: HPGFFTSIGQMTDLIHTEKDLVTSLKDYIKAEEDKLEQIKKWAEKLDRLTSTATKDPEGFVGHPVNAFKLMKRLNTEWSELENLVLKDMSDGFISNLTIQRQYFPNDEDQVGAAKALLRLQDTYNLDTDTISKGDLPGVKHKSFLTVEDCFELGKVAYTEADYYHTELWMEQALRQLDEGEVSTVDKVSVLDYLSYAVYQQGDLDKALLLTKKLLELDPEHQRANGNLKYFEYIMAKEKDANKSSSDDQSDQKTTLKKKGAAVDYLPERQKYEMLCRGEGIKMTPRRQKKLFCRYHDGNRNPKFILAPAKQEDEWDKPRIIRFHDIISDAEIEVVKDLAKPRLRRATISNPITGDLETVHYRISKSAWLSGYENPVVSRINMRIQDLTGLDVSTAEELQVANYGVGGQYEPHFDFARKDEPDAFKELGTGNRIATWLFYMSDVLAGGATVFPEVGASVWPKKGTAVFWYNLFASGEGDYSTRHAACPVLVGNKWVSNKWLHERGQEFRRPCTLSELE
chain 2: APDEEDHVLVLHKGNFDEALAAHKYLLVEFYAPWCGHCKALAPEYAKAAGKLKAEGSEIRLAKVDATEESDLAQQYGVRGYPTIKFFKNGDTASPKEYTAGREADDIVNWLKKRTGPAASTLSDGAAAEALVESSEVAVIGFFKDMESDSAKQFFLAAEVIDDIPFGITSNSDVFSKYQLDKDGVVLFKKFDEGRNNFEGEVTKEKLLDFIKHNQLPLVIEFTEQTAPKIFGGEIKTHILLFLPKSVSDYEGKLSNFKKAAESFKGKILFIFIDSDHTDNQRILEFFGLKKEECPAVRLITLEEEMTKYKPESDELTAEKITEFCHRFLEGKIKPHLMSQELPDDWDKQPVKVLVGKNFEEVAFDEKKNVFVEFYAPWCGHCKQLAPIWDKLGETYKDHENIVIAKMDSTANEVEAVKVHSFPTLKFFPASADRTVIDYNGERTLDGFKKFLESGGQDGAGDDDDLEDLEEAEEPDLEEDDDQKAVKDELHHHHHH
- alpha-ketoglutaric acid consumption over time [1]: The P4HA and P4HB enzymatic activity from PP548 were confirmed by the same assay as above
- % Hydroxyproline (in vitro hydroxylation, 32 C, 1 hour); enzyme from strain PP636 [2]: 0.9%

— US20210308031
